Data set [1] concerns the target T1, CRP (cAMP receptor protein) (Escherichia coli) (UniProt P0ACJ8).
T1 sequence: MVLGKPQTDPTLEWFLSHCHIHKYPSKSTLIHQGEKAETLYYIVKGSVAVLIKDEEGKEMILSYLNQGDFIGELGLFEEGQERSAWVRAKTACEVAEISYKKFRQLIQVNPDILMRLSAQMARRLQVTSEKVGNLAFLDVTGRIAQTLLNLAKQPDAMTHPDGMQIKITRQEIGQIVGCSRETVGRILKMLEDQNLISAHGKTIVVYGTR
Put plainly: EMSA. The settings on record: EMSA: 10 nM probe, 1x Beyotime EMSA/Gel-Shift Binding Buffer, 25 C 30 min, 6% PAGE at 4 C in 0.5x TBE + 200 uM cAMP; BLI: 10 mM HEPES, 2 mM MgCl2, 0.1 mM EDTA …. On the technique in general: In EMSA bound probe runs differently from free probe, usually more slowly.

The subject of data set [2] is CRP (cAMP receptor protein) (Escherichia coli). Put plainly: BLI. To be noted: EMSA: 10 nM probe, 1x Beyotime EMSA/Gel-Shift Binding Buffer, 25 C 30 min, 6% PAGE at 4 C in 0.5x TBE + 200 uM cAMP, BLI: 10 mM HEPES, 2 mM MgCl2, 0.1 mM EDTA ….

We go through two substances from PMC11559003.

What is called Kd is the concentration at which binding is half-saturated.

On to “AGCCAGTGGCGATAAGCGGAGTCTGCGAGGACGCTTCCTGAAAATCGTCTTTATTGCAGTGAATGACAGGCAAATGCGGAAGCAGCTACGCAAAACGCAACAACTTTGCGCAAAAAGTGTGAGCAAGGGCTACGTCACATGGCCGCGCCGTGTATAATAAGCTCGTATGTAGGCTTTATTTCGCTAATCACATACGAAAGATACTCATGGCTCAAGGCACGCCTTATCGCCACTGGCT (double strand) [spoT promoter probe]”, for which, in data set [1], the binding result is given as “binds”.
On to relA promoter probe, for which the Kd in data set [2] (cAMP + (p)ppGpp) turned out to be 110 µM; in data set [2] (cAMP, no (p)ppGpp) it was 13 µM.
